Data from article PMC3542827.

Assays:
Test in all cases: EMSA
[1] = test system: ParB (wild type) (Pseudomonas aeruginosa (PAO1161?)); settings: EMSA: 5.6 pmol dsDNA with 10, 20, 30, 50 pmol His6-ParB, 37 °C, 15 min; buffer as in Kusiak et al. 2011 (not given); 10% native PAGE in TBE
[2] = test system: ParB L282A (Pseudomonas aeruginosa (PAO1161?))
[3] = test system: ParB L286A (Pseudomonas aeruginosa (PAO1161?))
[4] = test system: ParB V285A (Pseudomonas aeruginosa (PAO1161?))

parS2/3 (oligos #17/#18)
binding signal (fold affinity (reference)) [1]: 1 | binding signal (fold affinity vs wild-type ParB) [2]: 0.5 | binding signal (fold affinity vs wild-type ParB) [3]: 2 | binding signal (fold affinity vs wild-type ParB) [4]: 0.5
